Results reported in paper PMC3094553 (Nature methods, 2009).
Where “and” joins values, the source holds several entries; their conditions need not be identical. Equal entries are not always repeated. Where two headings read alike, the source gives them in different places.

B1: PF0230 (ArsR transcription regulator) (natural protein)
chain: MTKRVKVITDPEVIKVMLEDTRRKILQLLRNREMTISQLSEILGKMPQTIYHHIEKLKEAGLVEVKRTEMKGNLVEKYYGRTADVFYINLYMGDEELRYLARSRLKTKLDIFKKLGYKFDEEELLNVMDRILEKEHEVKVEISKEIENVEDSLKEFSNEDIIHAIEWLAMARLAQDEEYIELVKKLGQILKR
B2: PF0094 (glutaredoxin-like) (natural protein)
chain: MGLISDADKKVIKEEFFSKMVNPVKLIVFVRKDHCQYCDQLKQLVQELSELTDKLSYEIVDFDTPEGKELAKRYRIDRAPATTITQDGKDFGVRYFGLPAGHEFAAFLEDIVDVSREETNLMDETKQAIRNIDQDVRILVFVTPTCPYCPLAVRMAHKFAIENTKAGKGKILGDMVEAIEYPEWADQYNVMAVPKIVIQVNGEDRVEFEGAYPEKMFLEKLLSALS
B3: PF0380 (conserved hypothetical protein) (natural protein)
chain: MGVEKVPKYDIPVKKVEYVFIELDKMKPHEQLVQRELEDFIESVTGSGIFWKPMLLAKIPGTDEYLIVDGHHRWAGLQKLGAKRAPSVILDYFDEGVKVYTWYPAFKGDVNKVIERLKAEGLEVIEDEKAEEKAEKGEIAFALIGEKSFAIPGGLEEQKKVSKVLDEMDQAKEIELVYYGLKEDAKADMEKGEIDYVFIRKAPTKEEVMELVKRGEVFSPKTTRHVLPFIPDKIDVKLEDLF
B4: PF0939 (isopropylmalate dehydratase) (natural protein)
chain: MKARGRAWKYGDNIDTDVIIPARYLNTSDPKELAQHVLEDLDPEFRYKMKPGDIIVAGENFGCGSSREHAPLAIKAAGVSAVIAKSFARIFYRNAINIGLPILEAPEAVERIETGDEIEIDFSTGEIRNLTKGEVYHANPFPEFIMEIIKAGGLVEWAKRRLAK
B5: ferredoxin (PF1909, Fd) (natural protein)
chain: AWKVSVDQDTCIGDAICASLCPDVFEMNDEGKAQPKVEVIEDEELYNCAKEAMEACPVSAITIEEA
B6: superoxide reductase (PF1281, SOR) (enzyme)
chain: MISETIRSGDWKGEKHVPVIEYEREGELVKVKVQVGKEIPHPNTTEHHIRYIELYFLPEGENFVYQVGRVEFTAHGESVNGPNTSDVYTEPIAYFVLKTKKKGKLYALSYCNIHGLWENEVTLE
B7: PF0619 (conserved hypothetical protein) (natural protein)
chain: MLVPGRVYLFRIPEGKEIIEFLREFAEKENIKVGIISAIGTLRNPVIGYFMEEEKKYKEISLTGTYELLSLSGNISLKDGKPFVHAHVVLGDSEGRAFGGHLVRGEVFVAEVFVQELEGETLERKPTEHGLALW
B8: PF1033 (thioredoxin-like fold) (natural protein)
chain: MIVIGEKFPEVEVKTTHGVIKLPDHFTKQGKWFMLFSHPADFTPVCTTEFYGLQIRLEKFRELGVEPIGLSVDQVFSHLKWMEWIKEKLGVEIEFPVIADDRGDLAEKLGMIPSGSTITARAVFIVDDKGIIRAIVYYPAEVGRDWDEILRLVKALKISTEKGVALPHKWPNNELIGDKVIVPPASSVEQIKEREEAKAKGEIECYDWWFCYKKLE
B9: acetyl-CoA synthetase subunit (PF1787) (natural protein)
chain: MDRVAKAREIIEKAKAENRPLVEPEAKEILKLYGIPVPEFKVARNEEEAVKFSGEIGYPVVMKIVSPQIIHKSDAGGVKINIKNDEEAREAFRTIMQNARNYKPDADLWGVIIYRMLPLGREVIVGMIRDPQFGPAVMFGLGGIFVEILKDVSFRVAPITKEDALEMIREIKAYPILAGARGEKPVNIEALADIIVKVGELALELPEIKEIDINPIFAYEDSAIAVDARMIL
B10: PF0014/0015 complex (complex)
chain 1: MEEKKPVNLVLPEVENAIFIEGYPGVGLVGHIAANFLAKELDMDLIGYVDSLFIPPMSLILEGRPTPPLRFYGKNNIIIAIADIFLPPTLVNEIAKEIVNYLKKVNAEKVISLAGMGIGFFKDTFEVWGIGGSEEENKELESLGVKILKYGSITGMSGKLLWEASRAGLKSYVLLGETFGDRPDPRAAANVVEVLNKMLGLNVSVEPLLKEAEMIEEQLRRMHEQMEEARRKMERQYETMYL
chain 2: MVVEIPLLSGIARRTLDALMRNPIRTVEIRNARNYMTLEKVKEGDLVFLTYESLEDVMRGTEGIIAMVTRMEKSHQRVPWEESDEREISICRVQLKLVGLGRVVEVQEKNGVVFVKVREMLHHEISMG
B11: PF0259 (conserved hypothetical protein) (natural protein)
chain: MAVIIEFSLIPLGEVSVSKYIAEAIKLLEEKGVKYQLTPMGTIIEVGSVEEGLKIVGEAHELMFKLGVKRVVTHIKIDDRRDKERKMEDKVKSVIEKVKK
B12: PF0715 (NADH oxidase) (natural protein)
chain: MEFFEVLKKRRSIRRFQDKPVPRELIEKLLEAAFLSPSSYNKRPCHFIVVDDREKLEALSKSKLGASGLKTAPVAIVVTADESKSDVWIEDASIAAEHIHLASYALGLASFWVQIRNRMHNETKTAEEYVRELLNIPENYRVLCIIGVGYPAEDKPPHGNEVFEWEKVSYNEFGKRFK
B13: PF1291 (phosphoesterase) (natural protein)
chain: MVYVAVLANIAGNLPALTAALSRIEEMREEGYEIEKYYILGNIVGLFPYPKEVIEVIKDLTKKENVKIIRGKYDQIIAMSDPHATDPGYIDKLELPGHVKKALKFTWEKLGHEGREYLRDLPIYLVDKIGGNEVFGVYGSPINPFDGEVLAEQPTSYYEAIMRPVKDYEMLIVASPMYPVDAMTRYGRVVCPGSVGFPPGKEHKATFALVDVDTLKPKFIEVEYDKKIIEERIRAEGLPEEIIKILYHGGRP
B14: PF1372 (conserved hypothetical protein) (natural protein)
chain: MTEIRYYKIGEDRFKISEDEVARRELRVAKVSDDVIQIQEEVHGIIALVGATSSVNIKKEELKELVKLVREEFGWDI
B15: PF1911 (ferredoxin NADP reductase) (natural protein)
chain: MYKILEKKEIAMRNTWYKVYAPHVAKKVQPGQFVIVRAFPNGERIPLTPVMWDREEGWIVLIVFTRGKTTMRMAVELKEGDSLLNVAGPLGTPVPMEKFGKILAIGAYTGIVEVYPIAKAWQEIGNDVTTLHVTFEPMVILKEELEKAVTRHIVEPVPLNPNQDFLANMKNVSQRLKEKVRELLESEDWDLVFMVGPVGDQKQVFEVVKEYGVPMKVDLHPIMVDGTGMCGACRVTVGGEVKFACVDGPEFDAYQVDWDELIHRVGFYAKLEKLALEKYMEELKAKGVI
B16: PF1950 (phosphoribosyl transferase) (natural protein)
chain: MKKFPAYLASWEDIENWAKAGAWKVLESGWMPDVIVGLARGGWIAARLYCDYLGVKDLVSIKVEHWGVTATPDGRARLKYGAQYDFEGKKVLIVDDITDTGESMSLAYEYMKSRNPAEIRTATLLNIKGSKFVPDYYAKDIDWVWVVFPWNFVEDMINLTNNLFEEKDKLTTDEIISLFKELHGIEVPREKLEEALRMAEKRKIFKFENGFWTKV

Assays:
SAXS [1] = target: the molecule itself; test: SAXS
SAXS [2] = target: the molecule itself; test: SAXS; remark: listed apart in the source

| Protein | stoichiometry N (SAXS [1]) | percent of the sample as 2-mer (SAXS [1]) | stoichiometry N (SAXS [2]) |
| --- | --- | --- | --- |
| B1 | 2 | – | – |
| B2 | 4 and 2 | 92% | – |
| B3 | 2 | 68% | – |
| B4 | 2 | – | – |
| B5 | 2 | 40% | – |
| B6 | 4 | – | – |
| B7 | 3 | – | – |
| B8 | 10 | – | – |
| B9 | 3 | – | – |
| B10 | – | – | > 8 |
| B11 | 8 | – | – |
| B12 | 2 | – | – |
| B13 | 4 | – | – |
| B14 | 4 | – | – |
| B15 | 2 | – | – |
| B16 | 2 | – | – |
